According to patent US20120164123:

Assays:
[1] = test system: human neutrophil peptide-1 (HNP-1)
[2] = test system: mono-ADP-ribosylated HNP-1
Chain of mono-ADP-ribosylated HNP-1 (chain, as listed by the source): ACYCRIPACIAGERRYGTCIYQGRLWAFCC

Chain of human neutrophil peptide-1 (HNP-1) (chain, as listed by the source): as above

manganese-activated arginase
ornithine formation by arginase (amino acid analysis and MS) [1]: Identification of the products by amino acid analysis and MS identified ornithine only in the reaction that contained free arginine
ornithine formation by arginase (amino acid analysis and MS) [2]: Identification of the products by amino acid analysis and MS identified ornithine only in the reaction that contained free arginine
